Experimental data published in PMC6299498 (BMC Veterinary Research, 2018).

Target: T1, SLA-2*HB01 heavy chain (swine leukocyte antigen 2, haplotype HB01 allele), extracellular domain (Sus scrofa)
T1 construct: SLA-2 haplotype HB01 allele, swine MHC class I heavy chain, extracellular domain stated as 275 amino acids; also called heavy chain of SLA-2*HB01
T1 MHC heavy: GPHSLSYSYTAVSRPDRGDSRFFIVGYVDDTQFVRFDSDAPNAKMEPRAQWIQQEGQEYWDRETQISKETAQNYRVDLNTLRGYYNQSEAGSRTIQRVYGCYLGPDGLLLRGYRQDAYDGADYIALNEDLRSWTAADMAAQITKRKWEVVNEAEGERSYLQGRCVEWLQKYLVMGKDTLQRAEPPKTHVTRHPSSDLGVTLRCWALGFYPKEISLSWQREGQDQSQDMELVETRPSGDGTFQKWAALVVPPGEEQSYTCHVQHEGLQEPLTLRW
Assay: SEC
Settings: both partners purified

B1: FMDV-AS64 CTL epitope (ALLRSATYY) from VP1 residues 64-72 of Asia 1 serotype foot-and-mouth disease virus (peptide)
peptide: ALLRSATYY
Question: Does B1 bind?
Answer: binds
